Laboratory results as given in the supplement of paper PMC9876800.

System: peptide library, one residue held at a place counted from the S/T acceptor
Test: relative phosphorylation of the sub-library (ratio to the mean residue at this position); higher = residue favoured
Details: human
Procedure, shortened: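 Purified recombinant kinases were reacted in 384-well plates with biotinylated degenerate peptide sub-libraries, each having one residue fixed at one position around a central Ser/Thr. The reaction mix contained 50 μM peptide plus 50 μM ATP spiked with γ-32P-ATP and ran for 90 min under kinase-specific conditions. Relative sub-library phosphorylation, taken from densitometry of phosphorimaged streptavidin membrane spots, is a ratio to the mean residue at that position.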

Chain of ULK2, construct: aa1-478 (Q8IYT8 1-478, looked up): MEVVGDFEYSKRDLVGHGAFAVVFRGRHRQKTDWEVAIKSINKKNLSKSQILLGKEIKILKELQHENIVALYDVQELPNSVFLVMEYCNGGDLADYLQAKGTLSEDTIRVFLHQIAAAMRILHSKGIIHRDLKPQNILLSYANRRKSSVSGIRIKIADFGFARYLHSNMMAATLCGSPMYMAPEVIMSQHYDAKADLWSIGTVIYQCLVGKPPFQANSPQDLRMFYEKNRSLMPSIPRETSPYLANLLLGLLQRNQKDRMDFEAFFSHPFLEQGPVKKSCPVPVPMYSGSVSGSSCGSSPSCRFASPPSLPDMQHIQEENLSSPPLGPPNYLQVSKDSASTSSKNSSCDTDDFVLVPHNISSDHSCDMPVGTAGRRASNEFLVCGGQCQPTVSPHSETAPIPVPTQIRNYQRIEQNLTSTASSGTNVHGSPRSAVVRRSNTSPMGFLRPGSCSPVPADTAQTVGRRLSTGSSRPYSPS
Chain of CAMKK1, construct: aa124-411 (Q8N5S9 124-411, looked up): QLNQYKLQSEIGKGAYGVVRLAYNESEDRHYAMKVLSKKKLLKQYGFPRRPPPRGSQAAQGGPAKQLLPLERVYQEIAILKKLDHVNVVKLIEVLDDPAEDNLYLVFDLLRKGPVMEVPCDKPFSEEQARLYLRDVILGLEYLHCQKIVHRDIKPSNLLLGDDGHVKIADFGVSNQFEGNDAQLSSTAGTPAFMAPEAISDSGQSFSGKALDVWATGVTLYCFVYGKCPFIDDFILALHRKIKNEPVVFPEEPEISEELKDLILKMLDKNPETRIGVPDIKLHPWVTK

CAMKK1, construct: aa124-411 (from UniProt Q8N5S9)
relative phosphorylation
Details | at +1 | at +2 | at +3 | at +4 | at -1 | at -2 | at -3 | at -4 | at -5
A fixed | 0.901 | 0.973 | 0.903 | 0.897 | 1.05 | 0.46 | 1.22 | 1.1 | 1.33
D fixed | 0.614 | 0.968 | 0.958 | 1.06 | 1.05 | 0.445 | 0.426 | 1.26 | 1.18
E fixed | 0.644 | 0.723 | 0.891 | 1.05 | 1.31 | 0.348 | 0.461 | 1.18 | 1.06
F fixed | 0.858 | 0.802 | 0.751 | 0.774 | 0.629 | 1.59 | 1.36 | 1.02 | 0.853
G fixed | 0.83 | 0.897 | 1.14 | 1.2 | 0.7 | 0.458 | 0.757 | 1.18 | 1.32
H fixed | 1.31 | 1.44 | 1.24 | 1.12 | 1.06 | 0.949 | 1.12 | 1.06 | 1.05
I fixed | 1.06 | 0.725 | 0.597 | 0.612 | 0.645 | 0.756 | 1.18 | 0.675 | 0.687
K fixed | 0.907 | 0.997 | 1.27 | 1.18 | 1.05 | 0.463 | 0.443 | 0.806 | 1.18
L fixed | 1.12 | 0.703 | 0.657 | 0.76 | 1.14 | 2.71 | 1.29 | 0.811 | 0.605
M fixed | 1.37 | 0.901 | 0.797 | 0.845 | 1.27 | 2.52 | 2.16 | 0.82 | 0.901
N fixed | 1.21 | 1.11 | 1.2 | 1.25 | 1.21 | 0.811 | 0.832 | 1.03 | 1.04
P fixed | 0.157 | 0.927 | 1.2 | 1.29 | 0.192 | 0.229 | 1.05 | 0.96 | 1.21
Q fixed | 1.33 | 1.08 | 1.15 | 1.14 | 1.51 | 0.696 | 0.872 | 0.955 | 0.863
R fixed | 1.31 | 1.57 | 1.49 | 1.23 | 1.75 | 0.633 | 0.583 | 0.791 | 1.13
V fixed | 1.06 | 0.865 | 0.702 | 0.628 | 0.696 | 0.594 | 1.04 | 0.83 | 0.786
W fixed | 1.01 | 0.968 | 0.975 | 1.13 | 0.718 | 0.668 | 1.03 | 1.59 | 0.906
Y fixed | 1.31 | 1.36 | 1.08 | 0.848 | 1.02 | 2.67 | 1.18 | 0.926 | 0.903
pThr fixed | 0.793 | 0.982 | 0.885 | 0.852 | 0.508 | 0.624 | 0.842 | 0.969 | 0.9
pTyr fixed | 0.907 | 0.947 | 1.01 | 0.925 | 1.28 | 0.668 | 0.726 | 0.838 | 0.979

ULK2, construct: aa1-478 (from UniProt Q8IYT8)
relative phosphorylation
Details | at +1 | at +2 | at +3 | at +4 | at -1 | at -2 | at -3 | at -4 | at -5
A fixed | 0.728 | 0.707 | 0.906 | 0.969 | 1.08 | 1.11 | 0.982 | 1.31 | 1.38
D fixed | 0.31 | 0.349 | 0.794 | 0.811 | 1.04 | 1.1 | 0.736 | 1.16 | 1.29
E fixed | 0.365 | 0.348 | 0.775 | 0.701 | 0.927 | 1.05 | 0.599 | 0.953 | 1.08
F fixed | 1.4 | 0.962 | 0.824 | 0.652 | 0.63 | 1.14 | 0.873 | 0.616 | 0.704
G fixed | 0.631 | 0.582 | 1.39 | 1.28 | 1.09 | 1.12 | 1.24 | 1.47 | 1.23
H fixed | 0.927 | 1.62 | 1.19 | 1.17 | 0.923 | 1.31 | 0.774 | 1.05 | 1.11
I fixed | 1.49 | 1.03 | 0.872 | 0.796 | 0.637 | 0.728 | 0.739 | 0.685 | 0.679
K fixed | 0.863 | 1.09 | 1.51 | 1.43 | 1.53 | 0.703 | 0.63 | 0.968 | 1.21
L fixed | 1.07 | 0.851 | 0.858 | 0.831 | 0.788 | 0.843 | 1.54 | 0.738 | 0.748
M fixed | 1.78 | 1.08 | 0.867 | 0.938 | 1.11 | 1.11 | 2.88 | 0.946 | 0.705
N fixed | 0.665 | 0.848 | 0.895 | 1.02 | 1.12 | 1.18 | 1.12 | 1.24 | 1.16
P fixed | 0.167 | 0.441 | 0.832 | 1.28 | 0.567 | 0.492 | 0.774 | 1.19 | 1.01
Q fixed | 1.37 | 0.846 | 0.932 | 1.01 | 1.4 | 0.965 | 0.955 | 0.91 | 0.995
R fixed | 1.05 | 1.59 | 1.37 | 1.28 | 1.48 | 0.655 | 0.693 | 0.965 | 1.1
V fixed | 1.53 | 1.02 | 0.945 | 0.863 | 1.02 | 0.774 | 0.808 | 0.748 | 0.815
W fixed | 1.14 | 1.6 | 1.02 | 1.11 | 0.814 | 1.6 | 1.02 | 1.3 | 1.02
Y fixed | 1.51 | 2.04 | 1.02 | 0.854 | 0.85 | 1.12 | 0.652 | 0.761 | 0.754
pThr fixed | 0.659 | 0.378 | 0.594 | 0.749 | 0.557 | 0.6 | 0.707 | 0.833 | 0.782
pTyr fixed | 0.882 | 0.714 | 0.817 | 0.647 | 0.923 | 1.04 | 0.619 | 0.547 | 0.707
